Results from patent publication US20260116967A1 (CSPC MEGALITH BIOPHARMACEUTICAL, published 2026).

Experiments:
[1] = molecular target: T1, human PVRIG on Jurkat-hPVRIG cells (human, UniProt Q6DKI7 41-326); experiment: flow cytometry on Jurkat-hPVRIG cells
T1 construct: whole, on cells; also called PVRIG on cell surface; effector cells stably expressing PVRIG
T1 sequence (looked up): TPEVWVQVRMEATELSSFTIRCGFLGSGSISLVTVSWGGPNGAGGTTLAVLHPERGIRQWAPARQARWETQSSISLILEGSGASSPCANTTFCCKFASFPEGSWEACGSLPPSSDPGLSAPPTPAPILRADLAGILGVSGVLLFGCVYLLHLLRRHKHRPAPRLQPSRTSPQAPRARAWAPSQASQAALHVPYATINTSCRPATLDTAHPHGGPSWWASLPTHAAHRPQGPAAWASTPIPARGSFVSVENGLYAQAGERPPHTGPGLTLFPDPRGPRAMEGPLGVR
Experimental: The cells were inoculated at a density of 2×10⁶/ml in 96-well plate, 100 μl/well. 4-fold gradient dilutions of antibodies (0-66.7 nM) were added to incubate at 4° C. for 1 h. Goat anti-human secondary antibody was added, and the cells were labeled in the dark at 4° C. for 45 min. After the cells were collected and washed, the fluorescence intensity of the cells was read by flow cytometry. […] At the same time, the affinity of Hab43F7C9.12 in recognizing cell surface PVRIG is better than that of the control molecule SRF813.

[2] = molecular target: T1, human PVRIG on Jurkat-hPVRIG cells; experiment: cell-based or functional assay
PVRIG-hFc protein [3] = molecular target: T2, PVRIG-hFc protein (human, UniProt Q6DKI7 41-171, limits assumed); experiment: blocking ELISA: antibody titrated against PVRIG-hFc binding to coated CD112-His
T2 construct: also called human PVRIG protein; not shown: human Fc (hFc)
T2 sequence (looked up): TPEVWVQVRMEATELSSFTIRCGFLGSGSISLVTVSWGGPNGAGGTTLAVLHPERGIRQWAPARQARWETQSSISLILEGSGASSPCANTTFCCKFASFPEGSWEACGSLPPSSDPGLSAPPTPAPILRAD
Experimental: The ELISA method was used to determine the ability of humanized PVRIG antibody to block the binding of human CD112 protein to human PVRIG protein. The CD112-His protein was diluted to a concentration of 1 μg/ml, and coated on the ELISA plate. A 3-fold gradient dilution of the antibody (0-133 nM) was mixed with the PVRIG-hFc protein and added to the coated ELISA plate to incubate at 37° C. for 1 hour. After washing the plate, the HRP-labeled goat anti-human Fc antibody was added to incubate at 37° C. for 1 hour. After washing the plate, the color developing solution was added, then adding the stop solution after 5 minutes and reading the results. The blocking results of the antibodies obtained are shown in FIG. 6 and Table 12 after GraphPad fitting. […] At the same time, Hab1B10E8.6, Hab21F10C10.12 and Hab43F7C9.12 have better ELISA blocking ability than the control molecule SRF813.

[4] = molecular target: T3, cynomolgus monkey PVRIG on 293T-cynoPVRIG cells (cynomolgus monkey, UniProt A0A2K5WVV8 41-322); experiment: flow cytometry on 293T-cynoPVRIG cells
T3 construct: whole, on cells; also called full-length monkey PVRIG
T3 sequence: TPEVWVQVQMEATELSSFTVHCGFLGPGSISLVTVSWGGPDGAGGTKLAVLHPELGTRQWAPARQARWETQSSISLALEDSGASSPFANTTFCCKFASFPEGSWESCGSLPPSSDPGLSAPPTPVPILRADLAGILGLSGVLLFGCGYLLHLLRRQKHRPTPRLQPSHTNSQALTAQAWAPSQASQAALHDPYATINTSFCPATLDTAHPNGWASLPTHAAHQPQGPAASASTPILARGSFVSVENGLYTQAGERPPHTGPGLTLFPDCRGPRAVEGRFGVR
Experimental: The cells were seeded in a 96-well plate at a density of 2×10⁶, 100 μl/well, then washed three times with FACS buffer and the supernatant was discarded. Antibodies diluted with PBS buffer (0-2.5 nM) in a gradient were added to incubate at 4° C. for 1 h. The cells were washed three times with FACS buffer, and then labeled with Alexa Fluor 488-labeled goat anti-human IgG antibody at 4° C. in the dark for 45 min. The cells were washed three times with FACS buffer, and the fluorescence intensity of the cells was read by flow cytometry.

[5] = molecular target: T4, recombinant human PVRIG protein (PVRIG extracellular full-length protein) (human, UniProt Q6DKI7 41-171); experiment: ELISA, human PVRIG protein coated at 500 ng/ml
T4 construct: also called recombinant PVRIG protein; soluble PVRIG
T4 sequence: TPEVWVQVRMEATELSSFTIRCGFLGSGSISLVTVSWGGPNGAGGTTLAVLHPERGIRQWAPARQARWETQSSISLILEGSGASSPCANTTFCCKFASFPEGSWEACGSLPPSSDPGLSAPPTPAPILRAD
Experimental: The affinity of humanized antibody to recombinant human PVRIG protein was determined by ELISA. The PVRIG protein was diluted to 500 ng/ml, and coated on the ELISA plate. After blocking, 3-fold gradient dilution of antibody (0-66.7 nM) was added, then performed color development and reading after incubation with goat anti-human secondary antibody.

PVRIG-hFc protein [6] = molecular target: T2, PVRIG-hFc protein; experiment: blocking flow cytometry: antibody titrated against PVRIG-hFc (1 ug/ml) binding to 293T-CD112 cells
Experimental: The cells were washed three times with FACS buffer, and then labeled with Alexa Fluor 488-labeled goat anti-human IgG antibody at 4° C. in the dark for 50 min. Then the cells were washed three times with FACS buffer, and the fluorescence intensity of the cells was read by flow cytometry.

human PVRIG-His protein = molecular target: T5, human PVRIG-His protein (human, UniProt Q6DKI7 41-171, limits assumed); experiment: BLI (Fortebio), PVRIG-His on HIS1K biosensor, antibody as analyte
T5 construct: not shown: His tag
T5 sequence (looked up): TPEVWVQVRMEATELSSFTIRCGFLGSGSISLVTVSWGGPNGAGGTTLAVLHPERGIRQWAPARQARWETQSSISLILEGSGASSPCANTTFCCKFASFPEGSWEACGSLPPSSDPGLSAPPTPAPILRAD
Experimental: The HIS1K biosensor was used, and human PVRIG-His protein was immobilized on the biosensor to a binding response threshold of 0.3 nm. After a 120 s baseline step, the sensor was immersed in an anti-PVRIG antibody diluted with 0.02% PBST buffer, with a starting antibody concentration of 25 nM, performing gradient dilution of 2-fold concentration with 7 gradients set. The binding and dissociation time of the immobilized substance and the analyte were 120 s and 300 s, respectively. The affinity data of antigen and antibody was calculated by regression analysis software based on the binding curve.

[7] = molecular target: T6, recombinant cynomolgus monkey (Cyno) PVRIG protein (cynomolgus monkey, UniProt A0A2K5WVV8 41-171); experiment: ELISA, Cyno-PVRIG protein coated at 500 ng/ml
T6 construct: also called soluble cynomolgus monkey PVRIG
T6 sequence: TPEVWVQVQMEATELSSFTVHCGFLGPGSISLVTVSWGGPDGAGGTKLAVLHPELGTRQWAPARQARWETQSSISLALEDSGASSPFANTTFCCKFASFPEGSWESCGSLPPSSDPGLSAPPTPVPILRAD
Experimental: The affinity of humanized antibody to recombinant cynomolgus monkey (Cyno) PVRIG protein was determined by ELISA. The Cyno-PVRIG protein was diluted to 500 ng/ml, and coated on the ELISA plate. After blocking, a 3-fold gradient dilution of the antibody (0-33.3 nM) was added. After incubation with goat anti-human secondary antibody for 1 hour, the plate was washed and the color was developed to read.

[8] = molecular target: T4, recombinant human PVRIG protein (PVRIG …); experiment: ELISA, PVRIG extracellular protein coated at 500 ng/ml
Experimental: VH and VL were respectively constructed into a eukaryotic expression vector comprising hIgG1-kappa constant region. The obtained eukaryotic expression vector was transiently transfected into HEK-293 cells and cultured for 6 days. The culture supernatant was harvested and purified by Protein A to obtain target antibodies, which were named 21F10C10-hIgG1 and 43F7C9-hIgG1, respectively. The affinity of the antibodies to the recombinant PVRIG protein was determined by ELISA. The PVRIG extracellular full-length protein diluted to a concentration of 500 ng/ml was coated on the ELISA plate. The plate was washed 3 times with PBST buffer, and then 200 μl of PBS buffer containing 2% BSA was added, and the plate was blocked at 37° C. for 2 h. After the blocking was completed, the plate was washed 3 times with PBST buffer; 3-fold gradient dilutions of the test antibody (0-33.3 nM) were added, incubated at 37° C. for 2 h; then the plate was washed 3 times with PBST buffer. Horseradish peroxidase-labeled goat anti-human antibody was added, incubated at 37° C. for 1 h; then the plate was washed three times with PBST buffer. TMB single-component color developing solution was added for color development, reading the absorbance value after adding the stop solution.

Binder	EC50 [1] [nM]	EC50 (nM) of reporter genes [2] [nM]	EC50 (PVRIG-hFc protein [3]) [nM]	EC50 [4] [nM]	EC50 [5] [nM]	EC50 (PVRIG-hFc protein [6]) [nM]	Kd (human PVRIG-His protein) [nM]	koff (human PVRIG-His protein) [s⁻¹]	kon (human PVRIG-His protein) [M⁻¹ s⁻¹]	EC50 [7] [nM]	EC50 [8] [nM]
SRF813-IgG1 (antibody, V domains shown) VH: QVQLVQSGAEVKKPGSSVKVSCKASGGTFSSAAISWVRQAPGQGLEWMGNIIPIVGIANYAQKFQGRVTITADESTSTAYMELSSLRSEDTAVYYCARDTGRGYTRHFWFDPWGQGTLVTVSS VL: DIQMTQSPSSLSASVGDRVTITCRASQSISSYLNWYQQKPGKAPKLLIYAASSLQSGVPSRFSGSGSGTDFTLTISSLQPEDFATYYCQQSDILYTFGGGTKVEIK	0.0497	0.963	0.431	0.15							
Hab21F10C10.12 (antibody, V domains shown, Humanized antibody; also called Hab21F10C10-VH.1d + Hab21F10C10-VL.1c) VH: QVQLVQSGAEVKKPGASVKVSCKASGYTFINNFIEWVRQAPGQGLEWMGVINPGSGDANYAQKFQGRVTMTRDTSISTAYMELSRLRSDDTAVYYCASHWLAYWGQGTTVTVSS VL: EIVMTQSPPTLSLSPGERVTLSCRSSQSLLSSGNQKNYLSWYQQKPGQAPRLLIYGASTRETGIPARFSGSGSGTDFTLTISSLQPEDFAVYYCQNGHFYPYTFGGGTKLEIK	0.0553	0.164	0.226	0.267	0.165	2.52	< 0.001	< 1e-07	837000	0.364	
Hab43F7C9.12 (antibody, V domains shown, Humanized antibody; also called Hab43F7C9-VH.1d + Hab43F7C9-VL.1c; 43H7C9.12) VH: QVQLQESGPGLVKPSETLSLTCTVSGYSISSDYAWNWIRQPPGKGLEWIGYIRYNGNTNYNPSLKSRVTISVDTSKNQFSLKLSSVTAADTAVYYCAIIYYDYDGFVYWGQGTTVTVSS VL: DIQMTQSPSSLSASVGDRVTITCRASQNVYENLHWYQQKPGKAPKLLIKFASDSISGVPSRFSGSGSGTDFTLTISSLQPEDFATYYCLQLYSTPYTFGGGTKLEIK	0.0178	0.0651	0.258	0.108	0.145	1.46	< 0.001	< 1e-07	963000	0.0797	
21F10C10-hIgG1 (antibody, V domains shown, also called 21F10C10 chimeric antibody) VH: QVQLQQSGAELVRPGTSVKVSCKASGYAFINNFIEWVKQRPGQGLEWIGVINPGSGDANYNEKFKGKATLTADKSSTTAYIQLSSLTSDDSAVYFCASHWLAYWGQGTLVTVSA VL: DIVMTQSPSSLSVSAGEKVTMSCKSSQSLLSSGNQKNYLAWYQQKPGQPPKLLIYGASTRESGVPDRFTGSGSGTDFTLTISSVQAEDLAVYYCQNGHFYPYTFGGGTKLEIK											0.122
43F7C9-hIgG1 (antibody, V domains shown, also called 43H7C9-hIgG1; 43H7C9) VH: DVQLQESGPGLVKPSQSLSLTCTVTGYSITSDYAWNWIRQFPGNRLEWMGYIRYNGNTNYNPSLKSRISITRDTSKNQFFLQLNSVTTEDTATYYCAIIYYDYDGFVYWGQGTLVTVSA VL: DILLTQSPATLSVTPGETVSLSCRASQNVYENLHWYQQKSHRSPRLLIKFASDSISGIPSRFTGSGSGTDYTLSINSVKPEDEGIYYCLQLYSTPYTFGGGTELEIK											0.29
Hab1B10E8.6 (antibody, V domains shown, Humanized antibody; also called Hab1B10E8-VH.1b + Hab1B10E8-VL.1b) VH: QVQLVQSGAEVKKPGASVKVSCKASGYSFPSYWMHWVRQAPGQGLEWIGEINPSNGLTNYNEQFRNRVTMTVDTSTSTVYMELSSLRSEDTAVYYCARHHGSTYYALDSWGQGTLVTVSS VL: DIVMTQSPDSLAVSLGERATINCKSSQSLLNSINQKNFLAWYQQKPGQPPKLLVYFASTRESGVPDRFSGSGSGTDFTLTISSLQAEDVAVYFCQQHYSTPPTFGGGTKLEIK	0.0501	0.184	0.285	0.124	0.0869	2.56	< 0.001	< 1e-07	782000	0.141	
